Conditions: Saccharomyces cerevisiae (strain ATCC 204508 / S288c), 25 °C, GdnHCl, CD, NaCl 40 mM
[1] = pH 4, acetate-HCl 20 mM, structure 1YCC
[2] = pH 5, acetate-HCl 20 mM, structure 1YCC
[3] = pH 5.8, MES 20 mM, structure 1YCC
[4] = pH 6.12, MES 20 mM, structure 1YCC
[5] = pH 6.5, MES 20 mM, structure 1YCC
[6] = pH 7.2, Tris 20 mM, structure 1YCC
[7] = pH 7.5, Tris 20 mM, structure 1YCC

Cytochrome c isoform 1 wild type, P00044, sequence (P00044 whole entry, canonical isoform): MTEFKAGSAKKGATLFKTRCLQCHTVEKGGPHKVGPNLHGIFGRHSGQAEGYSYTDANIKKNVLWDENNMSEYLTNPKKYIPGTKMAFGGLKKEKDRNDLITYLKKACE
Cytochrome c isoform 1 K79H, P00044, sequence (P00044 whole entry K79H, canonical isoform): as the sequence (P00044 whole entry, canonical isoform) above, with K79H counted along it

Cytochrome c isoform 1 K79H, P00044
denaturant m value [1]: 3.33 kcal/mol/M
denaturant midpoint (higher = more stable) [1]: 0.51 M
unfolding free energy [1]: 1.71 kcal/mol
denaturant m value [2]: 3.67 kcal/mol/M
denaturant midpoint (higher = more stable) [2]: 0.98 M
unfolding free energy [2]: 3.6 kcal/mol
denaturant m value [3]: 3.54 kcal/mol/M
denaturant midpoint (higher = more stable) [3]: 1.05 M
unfolding free energy [3]: 3.7 kcal/mol
denaturant m value [4]: 3.31 kcal/mol/M
denaturant midpoint (higher = more stable) [4]: 1.09 M
unfolding free energy [4]: 3.6 kcal/mol
denaturant m value [5]: 3.14 kcal/mol/M
denaturant midpoint (higher = more stable) [5]: 1.12 M
unfolding free energy [5]: 3.52 kcal/mol
denaturant m value [6]: 2.97 kcal/mol/M
denaturant midpoint (higher = more stable) [6]: 1.15 M
unfolding free energy [6]: 3.41 kcal/mol
denaturant m value [7]: 3.2 kcal/mol/M
denaturant midpoint (higher = more stable) [7]: 1.15 M
unfolding free energy [7]: 3.68 kcal/mol

Cytochrome c isoform 1 wild type, P00044
denaturant m value (pH 4, acetate-HCl 20 mM): 4.1 kcal/mol/M
denaturant midpoint (higher = more stable) (pH 4, acetate-HCl 20 mM): 0.66 M
unfolding free energy (pH 4, acetate-HCl 20 mM): 2.72 kcal/mol
denaturant m value (pH 4.5, acetate-HCl 20 mM): 4.28 kcal/mol/M
denaturant midpoint (higher = more stable) (pH 4.5, acetate-HCl 20 mM): 0.96 M
unfolding free energy (pH 4.5, acetate-HCl 20 mM): 4.11 kcal/mol
denaturant m value (pH 5, acetate-HCl 20 mM): 4.42 kcal/mol/M
denaturant midpoint (higher = more stable) (pH 5, acetate-HCl 20 mM): 1.08 M
unfolding free energy (pH 5, acetate-HCl 20 mM): 4.77 kcal/mol
denaturant m value (pH 5.8, MES 20 mM): 4.84 kcal/mol/M
denaturant midpoint (higher = more stable) (pH 5.8, MES 20 mM): 1.09 M
unfolding free energy (pH 5.8, MES 20 mM): 5.28 kcal/mol
denaturant m value (pH 6.12, MES 20 mM): 4.86 kcal/mol/M
denaturant midpoint (higher = more stable) (pH 6.12, MES 20 mM): 1.16 M
unfolding free energy (pH 6.12, MES 20 mM): 5.66 kcal/mol
denaturant m value (pH 6.5, MES 20 mM): 4.45 kcal/mol/M
denaturant midpoint (higher = more stable) (pH 6.5, MES 20 mM): 1.23 M
unfolding free energy (pH 6.5, MES 20 mM): 5.44 kcal/mol
denaturant m value (pH 7.2, Tris 20 mM): 4.31 kcal/mol/M
denaturant midpoint (higher = more stable) (pH 7.2, Tris 20 mM): 1.09 M
unfolding free energy (pH 7.2, Tris 20 mM): 4.68 kcal/mol
denaturant m value (pH 7.5, Tris 20 mM): 4.92 kcal/mol/M
denaturant midpoint (higher = more stable) (pH 7.5, Tris 20 mM): 1.15 M
unfolding free energy (pH 7.5, Tris 20 mM): 5.66 kcal/mol

— FireProtDB (doi:10.1021/bi981698k)
